# Assay results reported in PMC2734247, “The Chlamydia Type III Secretion System C-ring Engages a Chaperone-Effector Protein Complex” (PLoS Pathogens, 2009).
# T1: Ct618-6xHis (aa 1-189) (C. trachomatis serovar D, UniProt O84623 1-189)
# T1 construct: Ct618 of C. trachomatis, amino-terminal domain, aa 1-189; printed as Ct618-6xHis; also called 6xHis-tagged Ct618; amino-terminal domain of Ct618; source: E. coli BL21 DE3 (bicistronic pET-24d with Mcsc), in lysate; purified (Ni2+-NTA agarose, gel filtration)
# T1 sequence: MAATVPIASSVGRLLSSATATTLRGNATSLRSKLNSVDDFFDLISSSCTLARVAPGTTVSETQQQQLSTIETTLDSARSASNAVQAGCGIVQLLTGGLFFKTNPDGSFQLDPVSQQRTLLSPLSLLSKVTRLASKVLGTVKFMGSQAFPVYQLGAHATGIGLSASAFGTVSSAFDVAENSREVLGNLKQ
# B1: 6xHis-Mcsc (natural protein)
# chain: MTTWTLNHNNLTKFLTHAQLEPSLERESGLIYITVPAGEHELPLFFVIRNEGEVLQLVCYFPYQIQQNQRDTTARLLHLVNRDIDIPGFGMDEEQNIIFYRLVIPCLKGEINEDLLRVYIDTIKLICDSFFHAIGLISTGNMDLDELKKQAKLENNQSDQLEP
# notes: Ct260 (Mcsc) of C. trachomatis, amplified from serovar D genomic DNA; printed as 6xHis-Mcsc, vector pET15b; also called hexahistidine-tagged Mcsc (Ct260); 6xHis-tagged Mcsc dimers; source: E. coli BL21 DE3 (pET15b-Mcsc), purified (Ni2+-NTA agarose, gel filtration)
# B2: Mcsc, untagged, co-expressed from a bicistronic vector (natural protein)
# chain: B1 chain
# notes: Ct260 (Mcsc) of C. trachomatis, amplified from serovar D genomic DNA; also called untagged Mcsc; Ct260; source: E. coli BL21 DE3 (bicistronic pET-24d), in lysate; co-purified with the 6xHis-tagged effector (Ni2+-NTA agarose, gel filtration)
# Columns and labels:
# [1] = target: Cap1-6xHis (aa 1-298) (C. trachomatis serovar D); experiment: SEC; proteins eluted from Ni2+-NTA (complexes formed by co-expression in E. coli) on a 16/60 Sephacryl S-100 HR column; 10 mM Tris-HCl/50 mM phosphate buffer/150 mM NaCl pH 8.0; sizes by a low molecular weight calibration kit
# [2] = target: the molecule itself; experiment: cross-linking; purified 6xHis-Mcsc treated with 0.25-1 mM DSP for 20 min at 4 C; SDS-PAGE with or without 50 mM DTT; immunoblot with Mcsc antibodies
# Ct618-6xHis (aa 1-189) = target: T1, Ct618-6xHis (aa 1-189); experiment: SEC; proteins eluted from Ni2+-NTA (complexes formed by co-expression in E. coli) on a 16/60 Sephacryl S-100 HR column; 10 mM Tris-HCl/50 mM phosphate buffer/150 mM NaCl pH 8.0; sizes by a low molecular weight calibration kit; conditions: both partners purified
molecule,measurement,setting,value
"Mcsc, untagged, co-expressed from a bicistronic vector (from UniProt O84262 1-163) (natural protein)",stoichiometry N (Mcsc subunits per effector protein),[1],2
B1,stoichiometry N,[2],2
B2,stoichiometry N,Ct618-6xHis (aa 1-189),2 Mcsc subunits per effector protein
